Laboratory results published in the supplement of paper PMC12042874.
± gives the uncertainty stated by the source.

Assay: amyloid nucleation score (Sup35N fusion, yeast selection) (log enrichment); library NNK3; higher = more nucleation; inactive = no reads after selection
In short: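 For the nucleation score, DiMSum gave the log enrichment of output over input reads, centred on the mode score of non-aggregating sequences. Psi-negative yeast expressing Sup35N fused to peptides of 20 random codons were induced with 100 μM copper sulfate for 24 hours and grown 7 days at 30°C on medium lacking adenine and uracil. Input and output plasmid inserts were Illumina-sequenced, and sequences with under 100 input reads were excluded.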
In the case of ICEPADQV, the amyloid nucleation score is reported as “inactive”.
In the case of ISQFLGKFTFCNSALHFFGA, the amyloid nucleation score is reported as “inactive”.
In the case of TMKIMFVEPWKCRAAFQL, the amyloid nucleation score is reported as “inactive”.
With LSTMN the amyloid nucleation score was “inactive”.
Work on RACHFQVIMCMICALCGFAS yielded an amyloid nucleation score of 1.91 ± 0.079.
For GHSGKVVL, the amyloid nucleation score was “inactive”.
In the case of RCAPFNFFPCHIWRYVLTRK, the amyloid nucleation score is reported as “inactive”.
For LSGADTYRSTTRSYGGNDVV, the amyloid nucleation score was -0.641 ± 1.1.
With MGMFTNPT the amyloid nucleation score was “inactive”.
With HFSKHTVTNRPYDVHNLGKC the amyloid nucleation score was “inactive”.
With TINRHYVTASRYWLPCRRVR the amyloid nucleation score was “inactive”.
For AYSVYVFALYRLNFYVLLRN, the amyloid nucleation score was “inactive”.
In the case of SLVIQKSFRGDGLRVRHGLQ, the amyloid nucleation score is reported as “inactive”.
For LKEQSVQMAWP, the amyloid nucleation score was “inactive”.
For RMHMKLVGKG, the amyloid nucleation score was “inactive”.
For CFASWN, the amyloid nucleation score was “inactive”.
With SDMTYHQWGTVYTLD the amyloid nucleation score was “inactive”.
In the case of TWCAHS, the amyloid nucleation score is reported as “inactive”.
In the case of VYNQNAKVTN, the amyloid nucleation score is reported as “inactive”.
For VQYFPISGDARGRQLQRI, the amyloid nucleation score was “inactive”.
With NMTTGYGAMGFRVVEAWFGC the amyloid nucleation score was 1.13 ± 0.11.
In the case of IFLYNVLIGLCLDNPYKLFG, the amyloid nucleation score is reported as “inactive”.
In the case of GILRQRIYFSM, the amyloid nucleation score is reported as “inactive”.
With SVALYVPLQSYSQQFLEVAT the amyloid nucleation score was “inactive”.
NSYKVLTYVFCQVRANTIYC showed an amyloid nucleation score of 2.04 ± 0.059.
For YIIICLGMWCYSNVGSKTGT, the amyloid nucleation score was “inactive”.
In the case of MIFVGILVFSDLRASKVPWV, the amyloid nucleation score is reported as “inactive”.
For GRHVLGCVDITTGARSLPRM, the amyloid nucleation score was “inactive”.
In the case of WMVYDSLILFHDVRRSYLPM, the amyloid nucleation score is reported as “inactive”.
For GYVPMYVCLSPYHKTVLWLS, the amyloid nucleation score was 0.447 ± 0.2.
For GRDAVHHCMLRESQRKLREV, the amyloid nucleation score was “inactive”.
Work on LDMKPRQARTFFLNHGVLPA yielded an amyloid nucleation score of 0.313 ± 0.78.
In the case of AIGDVTVGRIHFDMHCGLGR, the amyloid nucleation score is reported as -0.955 ± 1.2.
In the case of CGWIFNLYSRRIQALEGRAS, the amyloid nucleation score is reported as “inactive”.
VLVCSAMNGFSFHNLSH gave an amyloid nucleation score of 0.872 ± 0.15.
With VVLGADGRLPF the amyloid nucleation score was “inactive”.
In the case of MKPSKGVDL, the amyloid nucleation score is reported as “inactive”.
For MDSFRRDEYFKSLFVMLYLS, the amyloid nucleation score was “inactive”.
With VMVCFG the amyloid nucleation score was “inactive”.
For FYYANMTRSKILAPFSRPSR, the amyloid nucleation score was “inactive”.
In the case of FSGNGSSYYASSMNGDTVFL, the amyloid nucleation score is reported as “inactive”.
FLSCNTCWGMTNANLSDNFN gave an amyloid nucleation score of 2.05 ± 0.071.
For YSLAELMCMKEHLPMRNGCF, the amyloid nucleation score was 0.774 ± 0.14.
ASWPNYYWSNSLILFRDKCV showed an amyloid nucleation score of 0.019 ± 0.3.
In the case of SSWADYSKPYSGFCQGYRVY, the amyloid nucleation score is reported as “inactive”.
LMASWTVRTYHGFSISENRN showed an amyloid nucleation score of 0.312 ± 0.26.
With NGNFWCFVLVLS the amyloid nucleation score was 0.595 ± 0.24.
In the case of RDVCVHPNHFKCGAAMFPED, the amyloid nucleation score is reported as “inactive”.
In the case of NQQWIP, the amyloid nucleation score is reported as “inactive”.
With RYRNIYC the amyloid nucleation score was “inactive”.
In the case of CRHPTGKACELCELACFN, the amyloid nucleation score is reported as “inactive”.
In the case of ANECDGVYNGAKCSRWNFLL, the amyloid nucleation score is reported as “inactive”.
VTVIYNVDYCKETIFQMVVT gave an amyloid nucleation score of 0.124 ± 0.48.
For VGQYGRFDTSQFCVFVVGE, the amyloid nucleation score was “inactive”.
In the case of NRCKLNVAGHLCANRTRRFR, the amyloid nucleation score is reported as “inactive”.
Substance TCLLFVTHFNWYNTLVEGTI has an amyloid nucleation score of 0.989 ± 0.15.
For IRYLYLFVYSSRLSHIPGKN, the amyloid nucleation score was “inactive”.
For HRVYLPGRWRLMISLSC, the amyloid nucleation score was -0.201 ± 1.3.
For CIPIMRTPLGTPSN, the amyloid nucleation score was “inactive”.
TALAEQ showed an amyloid nucleation score of -0.402 ± 1.3.
With VAFTLDGKARDKYRNGDHNK the amyloid nucleation score was “inactive”.
TPSRREMDVCVFFSPFAMHM showed an amyloid nucleation score of 0.896 ± 0.095.
With VWDRRK the amyloid nucleation score was “inactive”.
For YYFTVLRLVVNMAIVSPCPQ, the amyloid nucleation score was “inactive”.
With SIILVYKLE the amyloid nucleation score was “inactive”.
For AHVKLNDVFSWI, the amyloid nucleation score was “inactive”.
With WVDFTTWLKFVFRSSIHYLL the amyloid nucleation score was 0.012 ± 0.68.
In the case of FSLHNRGFMIQHKRVLEDGA, the amyloid nucleation score is reported as “inactive”.
For LTYGFFESNFGGCNRFCF, the amyloid nucleation score was “inactive”.
SFNVTVRGLSSSN gave an amyloid nucleation score of 0.027 ± 0.47.
Work on NISLELDVFCTTNNMG yielded an amyloid nucleation score of 1.74 ± 0.089.
In the case of VQLGAD, the amyloid nucleation score is reported as “inactive”.
With RANRQQGVGTKQREGHNTVG the amyloid nucleation score was “inactive”.
In the case of LGFHTYRNLGKMHI, the amyloid nucleation score is reported as “inactive”.
With VHFKCLRRCVGVIDRCINRH the amyloid nucleation score was “inactive”.
In the case of VDRVT, the amyloid nucleation score is reported as “inactive”.
For VSWVYRSGRFYDGVGVGYRT, the amyloid nucleation score was “inactive”.
In the case of WCCLETRLYL, the amyloid nucleation score is reported as 1.5 ± 0.1.
VITADLRSMIWDVPKNVY showed an amyloid nucleation score of 0.92 ± 0.16.
In the case of RLRYIGSILLLRRKVVFLMH, the amyloid nucleation score is reported as “inactive”.
With SRCFNSGTYPEICVHRVLKV the amyloid nucleation score was “inactive”.
YRSTLEKVSVGMMENICVGI showed an amyloid nucleation score of 0.028 ± 0.2.
In the case of HRYVKALRFF, the amyloid nucleation score is reported as “inactive”.
MGVSADTYYNIRM showed an amyloid nucleation score of 0.161 ± 0.43.
With VLFAKRLDLTCVFLFIGRVW the amyloid nucleation score was “inactive”.
Work on TRVSWTFGINTSSGPSALHL yielded an amyloid nucleation score of 0.995 ± 0.13.
In the case of PLRRSMMRIPHATF, the amyloid nucleation score is reported as “inactive”.
In the case of FHSSFSVYCPFNSMLASV, the amyloid nucleation score is reported as 0.005 ± 0.58.
With RQTTYHGGKWLCSSVSGMYN the amyloid nucleation score was “inactive”.
With TESQRSNWCTASIKSMYSYS the amyloid nucleation score was “inactive”.
In the case of ILQTRKRVNVLNIVIWQIAF, the amyloid nucleation score is reported as 1.09 ± 0.18.
With MILLLSGGCVTESFWG the amyloid nucleation score was “inactive”.
For VYFPTWFTLVFSPSKFWICI, the amyloid nucleation score was “inactive”.
For ISWYVWRVMYMSCGWSIVFR, the amyloid nucleation score was “inactive”.
In the case of AFFGCCYGRDLVEHW, the amyloid nucleation score is reported as 1.49 ± 0.1.
For LGVMSAVRAIGGFEILIGCV, the amyloid nucleation score was “inactive”.
HAQCLMSIIEVS gave an amyloid nucleation score of -0.029 ± 1.1.
For TQDCG, the amyloid nucleation score was “inactive”.
For FLALDQISFVIRCLNI, the amyloid nucleation score was “inactive”.
Substance TVICELRNMRYS has an amyloid nucleation score of 1.81 ± 0.087.
Substance FGVTTEF has an amyloid nucleation score of 1.23 ± 0.14.
For ICILADEYLMCGYGYFHFDY, the amyloid nucleation score was “inactive”.
In the case of VNNSRGSAYSEVRSILRRYA, the amyloid nucleation score is reported as “inactive”.
With SHVWPLLMYHGGIVWSKS the amyloid nucleation score was “inactive”.
For SNCFRILYTCAVAQLPPCMR, the amyloid nucleation score was “inactive”.
Substance KDKACRNCHKGVMRVTWVK has an amyloid nucleation score of 0.012 ± 0.87.
For DIVVGAQRNELFS, the amyloid nucleation score was “inactive”.
For KPRILFQCPIRKVLRVGVKF, the amyloid nucleation score was “inactive”.
With LAVYSSINFSRNGGSLTWTI the amyloid nucleation score was “inactive”.
For DLRVPLNTFRNYHVSRELVR, the amyloid nucleation score was “inactive”.
For LGPREQDLINFNWVFQYLKH, the amyloid nucleation score was “inactive”.
In the case of AMNFYI, the amyloid nucleation score is reported as “inactive”.
With SKCVYAVWCACVFARF the amyloid nucleation score was “inactive”.
In the case of KCLLV, the amyloid nucleation score is reported as “inactive”.
For YFANTVRTFLVLLQAFVLVV, the amyloid nucleation score was “inactive”.
In the case of RIVGIYKGLLAD, the amyloid nucleation score is reported as “inactive”.
For DYALI, the amyloid nucleation score was “inactive”.
In the case of YSTVDQLARGLQKLMVWLDV, the amyloid nucleation score is reported as “inactive”.
With AQFVWMKLHICRTDLGESH the amyloid nucleation score was “inactive”.
With SLLSEMSTR the amyloid nucleation score was “inactive”.
In the case of IRSNGTFTPWEPLSVIWCTK, the amyloid nucleation score is reported as “inactive”.
In the case of LLLSLGVLCYP, the amyloid nucleation score is reported as “inactive”.
For VIWGTPQFSFAEVREFDLVH, the amyloid nucleation score was “inactive”.
For IIEDLLLHWLGVWVFSKKFA, the amyloid nucleation score was “inactive”.
With RALKRFYNVIFYFRSYVPVS the amyloid nucleation score was “inactive”.
In the case of HLTHFQQILRFNKAETCVRT, the amyloid nucleation score is reported as “inactive”.
In the case of FLNSCQNMQVPSGKFNSSKV, the amyloid nucleation score is reported as -0.122 ± 0.82.
In the case of LVMPYDMCCTRFQRAFSVCC, the amyloid nucleation score is reported as “inactive”.
In the case of ASFFNILNPISIVVILKRFC, the amyloid nucleation score is reported as “inactive”.
For FHDVMKGGI, the amyloid nucleation score was “inactive”.
Substance YFRANVRLKLEVMQRKKSPS has an amyloid nucleation score of 2.28 ± 0.075.
In the case of RECVMETWSQVGRWFTCVRV, the amyloid nucleation score is reported as “inactive”.
TVVVGLVGF showed an amyloid nucleation score of 0.825 ± 0.2.
With MYFILASSISILFGIKVFPM the amyloid nucleation score was “inactive”.
In the case of QVVTSYGGSAVEDITAML, the amyloid nucleation score is reported as “inactive”.
In the case of HIRRCEVTNTF, the amyloid nucleation score is reported as “inactive”.
With WIGRTLLDSYDGRFSIAIRD the amyloid nucleation score was “inactive”.
MYVQVS showed an amyloid nucleation score of -0.795 ± 0.91.
In the case of ISQLIEHRRAESCLRPKGRQ, the amyloid nucleation score is reported as “inactive”.
With TLLYTI the amyloid nucleation score was “inactive”.
With TGYSYFYGWMVTYATQSKRV the amyloid nucleation score was “inactive”.
In the case of VLTVVAKAWFPVFRPTWFLL, the amyloid nucleation score is reported as “inactive”.
AYSSWALMLGHTMCIYGGFR gave an amyloid nucleation score of 1.55 ± 0.13.
IVQTLYNLAAVHSTWAIRFQ gave an amyloid nucleation score of -0.142 ± 0.4.
HVDTSPSYIPPGIKLVRQRM gave an amyloid nucleation score of -0.528 ± 0.36.
For TNYRYSFGISYS, the amyloid nucleation score was “inactive”.
IRGSSKTDSKRTWVK showed an amyloid nucleation score of -0.364 ± 0.7.
WVQVCCVNTNGRSFQLEGSI showed an amyloid nucleation score of 1.36 ± 0.097.
With WPSLYHQMYGVYLGLLVILK the amyloid nucleation score was “inactive”.
For CENIVGMPDRRISSVAGPDG, the amyloid nucleation score was 0.486 ± 0.33.
In the case of VAMVSGIG, the amyloid nucleation score is reported as “inactive”.
In the case of WWDTLIAGSLPKLTWNQKTG, the amyloid nucleation score is reported as “inactive”.
For KWVKPRVVTQKR, the amyloid nucleation score was “inactive”.
For FYPTNGSGSRVLMHGNSMLC, the amyloid nucleation score was “inactive”.
For HVFRLCMGKTELAYFY, the amyloid nucleation score was “inactive”.
With LIIGCGIFSLNS the amyloid nucleation score was 1.94 ± 0.068.
In the case of FTMALMLALTTGISSMSVGG, the amyloid nucleation score is reported as 0.345 ± 0.37.
Work on GFRECTRNFFL yielded an amyloid nucleation score of 0.361 ± 0.17.
With KPRSC the amyloid nucleation score was “inactive”.
In the case of MWFTLKMYTMRCCFEVTLRK, the amyloid nucleation score is reported as “inactive”.
For QFCSSYWYQGTAYCLLPIAT, the amyloid nucleation score was “inactive”.
With SMASK the amyloid nucleation score was -0.64 ± 0.82.
